We go through 4 molecules from patent US20030049646A1 (METROHEALTH SYSTEM, published 2003).

T1: KChAP (K+ Channel Associated Protein), full length, in pGAD10 (rat, UniProt O70260 55-628)
T1 construct: Yeast two-hybrid construct; also called full length KChAP
T1 sequence: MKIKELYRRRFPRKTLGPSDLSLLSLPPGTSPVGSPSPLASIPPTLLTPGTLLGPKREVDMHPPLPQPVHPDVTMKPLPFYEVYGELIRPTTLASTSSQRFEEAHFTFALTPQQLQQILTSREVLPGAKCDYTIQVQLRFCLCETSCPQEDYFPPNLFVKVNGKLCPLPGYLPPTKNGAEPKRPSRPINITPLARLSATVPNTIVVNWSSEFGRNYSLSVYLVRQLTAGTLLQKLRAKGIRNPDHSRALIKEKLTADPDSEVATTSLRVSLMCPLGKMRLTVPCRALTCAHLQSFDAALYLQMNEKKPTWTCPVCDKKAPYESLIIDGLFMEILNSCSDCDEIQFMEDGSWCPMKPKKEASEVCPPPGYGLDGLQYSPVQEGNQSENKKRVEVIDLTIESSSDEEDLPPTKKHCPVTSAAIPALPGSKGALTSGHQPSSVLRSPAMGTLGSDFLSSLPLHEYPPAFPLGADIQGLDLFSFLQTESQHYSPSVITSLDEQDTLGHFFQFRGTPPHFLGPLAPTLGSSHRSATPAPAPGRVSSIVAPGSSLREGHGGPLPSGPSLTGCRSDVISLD

B1: Kvβ1C (carboxyl terminal 329 amino acids of the Kvβ1 subfamily), in pGBT9 (other, UniProt P04386 1-147, looked up)
chain: MKLLSSIEQACDICRLKKLKCSKEKPKCAKCLKNNWECRYSPKTKRSPLTRAHLTEVESRLERLEQLFLLIFPREDLDMILKMDSLQDIKALLTGLFVQDNVNKDAVTDRLASVETDMPLTLRQHRISATSSSEESSNKGQRQLTVSHRNLGKSGLRVSCLGLGTWVTFGGQISDEVAERLMTIAYESGVNLFDTAEVYAAGKAEVILGSIIKKKGWRRSSLVITTKLYWGGKAETERGLSRKHIIEGLKGSLQRLQLEYVDVVFANRPDSNTPMEEIVRAMTHVINQGMAMYWGTSRWSAMEIMEAYSVARQFNMIPPVCEQAEYHLFQREKVEVQLPELYHKIGVGAMTWSPLACGIISGKYGNGVPESSRASLKCYQWLKERIVSEEGRKQQNKLKDLSPIAERLGCTLPQLAVAWCLRNEGVSSVLLGSSTPEQLIENLGAIQVLPKMTSHVVNEIDNILRNKPYSKKDYRS
notes: also called C-terminus of Kvβ1
B2: KChAP-Y (partial clone of KChAP from W310 to the C-terminus), in pGAD10 (other, not shown: large carriers)
chain: WTCPVCDKKAPYESLIIDGLFMEILNSCSDCDEIQFMEDGSWCPMKPKKEASEVCPPPGYGLDGLQYSPVQEGNQSENKKRVEVIDLTIESSSDEEDLPPTKKHCPVTSAAIPALPGSKGALTSGHQPSSVLRSPAMGTLGSDFLSSLPLHEYPPAFPLGADIQGLDLFSFLQTESQHYSPSVITSLDEQDTLGHFFQFRGTPPHFLGPLAPTLGSSHRSATPAPAPGRVSSIVAPGSSLREGHGGPLPSGPSLTGCRSDVISLD
notes: also called KChAP-Y plasmid
B3: HERG N-terminus (amino acids 1-396), in pGBT9 (other, UniProt P04386 1-147, looked up)
chain: MKLLSSIEQACDICRLKKLKCSKEKPKCAKCLKNNWECRYSPKTKRSPLTRAHLTEVESRLERLEQLFLLIFPREDLDMILKMDSLQDIKALLTGLFVQDNVNKDAVTDRLASVETDMPLTLRQHRISATSSSEESSNKGQRQLTVSMPVRRGHVAPQNTFLDTIIRKFEGQSRKFIIANARVENCAVIYCNDGFCELCGYSRAEVMQRPCTCDFLHGPRTQRRAAAQIAQALLGAEERKVEIAFYRKDGSCFLCLVDVVPVKNEDGAVIMFILNFEVVMEKDMVGSPAHDTNHRGPPTSWLAPGRAKTFRLKLPALLALTARESSVRSGGAGGAGAPGAVVVDVDLTPAAPSSESLALDEVTAMDNHVAGLGPAEERRALVGPGSPPRSAPGQLPSPRAHSLNPDASGSSCSLARTRSRESCASVRRASSADDIEAMRAGVLPPPPRHASTGAMHPLRSGLLNSTSDSDLVRYRTISKIPQITLNFVDLKGDPFLASPTSDREIIAPKIKERTHNVTEKVTQVLSLGADVLPEYKLQAPRIH
notes: also called N-terminus of the delayed rectifier K+ channel, HERG
B4: Kv2.1 N-terminus (amino acids 1-168), in pGBT9 (other, UniProt P04386 1-147, looked up)
chain: MKLLSSIEQACDICRLKKLKCSKEKPKCAKCLKNNWECRYSPKTKRSPLTRAHLTEVESRLERLEQLFLLIFPREDLDMILKMDSLQDIKALLTGLFVQDNVNKDAVTDRLASVETDMPLTLRQHRISATSSSEESSNKGQRQLTVSMPAGMTKHGSRSTSSLPPEPMEIVRSKACSRRVRLNVGGLAHEVLWRTLDRLPRTRLGKLRDCNTHDSLLQVCDDYSLEDNEYFFDRHPGAFTSILNFYRTGRLHMMEEMCALSFSQELDYWGIDEIYLESCCQARYHQKKEQMNEELKREAETLREREGEEFDNTCC

What all share (assay): yeast two-hybrid (Y190, pGAD10 x pGBT9), β-galactosidase filter assay
The target in test [1] is T2, human Gu binding protein (GBP), in pGAD10 (human, UniProt O75925 55-651, limits assumed).
T2 construct: Comparison protein, about 50% homologous to KChAP
The protocol:
(§1) In the indirect procedure, the yeast Matchmaker Two-Hybrid System Clontech and cDNA molecules encoding KChAP and KChAP-Y were used. The binding specificity between full length KChAP or KChAP-Y and the following Kvα, Kvβ and other K+ channel subunit fragments were determined: Kvβ1.2 (amino acids 1-408), Kvβ1.2-N terminus (amino acids 1-79), Kvβ1C (carboxyl terminal 329 amino acids of the Kvβ1 subfamily), Kvβ2 (amino acids 1-367); Kv1.1-N terminus (amino acids 1-168), Kv1.2 N-terminus (amino acids 1-124), Kv1.4 N-terminus (amino acids 1-305), Kv1.4 C-terminus (amino acids 562-654), Kv1.5 N-terminus (amino acids 1-248), Kv2.1 N-terminus (amino acids 1-168), Kv2.2 N-terminus (amino acids 1-185), Kv6.1 N-terminus (amino acids 1-209), Kir2.2 N-terminus (amino acids 1-86), and HERG N-terminus (amino acids 1-396). The ability of human Gα-binding protein (GBP) to bind to these fragments was also determined.
(§2) Protein-protein interactions were tested by co-transformation of the yeast host strain Y190 with a pGAD10 plasmid containing inserts encoding KChAP-Y, KChAP or GBP with a pGBT9 plasmid containing an insert encoding one of the K+ channel protein fragments. pGBT9 is a GAL4 DNA binding domain [BD] vector. Co-transformants were plated on medium lacking trp and leu and grown for 2.5 days at 30° C. Yeast colonies were lifted to paper filters and assayed for β-galactosidase activity. Appearance of blue color within 8 hours was scored as a positive interaction between the proteins encoded by the two plasmids.

Test [2] has as its target B3. The procedure: as §1, §2
The target in test [3] is T1, KChAP (K+ Channel Associated Protein), …. The protocol: as §1, §2

T2 sequence (O75925 55-651 limits assumed): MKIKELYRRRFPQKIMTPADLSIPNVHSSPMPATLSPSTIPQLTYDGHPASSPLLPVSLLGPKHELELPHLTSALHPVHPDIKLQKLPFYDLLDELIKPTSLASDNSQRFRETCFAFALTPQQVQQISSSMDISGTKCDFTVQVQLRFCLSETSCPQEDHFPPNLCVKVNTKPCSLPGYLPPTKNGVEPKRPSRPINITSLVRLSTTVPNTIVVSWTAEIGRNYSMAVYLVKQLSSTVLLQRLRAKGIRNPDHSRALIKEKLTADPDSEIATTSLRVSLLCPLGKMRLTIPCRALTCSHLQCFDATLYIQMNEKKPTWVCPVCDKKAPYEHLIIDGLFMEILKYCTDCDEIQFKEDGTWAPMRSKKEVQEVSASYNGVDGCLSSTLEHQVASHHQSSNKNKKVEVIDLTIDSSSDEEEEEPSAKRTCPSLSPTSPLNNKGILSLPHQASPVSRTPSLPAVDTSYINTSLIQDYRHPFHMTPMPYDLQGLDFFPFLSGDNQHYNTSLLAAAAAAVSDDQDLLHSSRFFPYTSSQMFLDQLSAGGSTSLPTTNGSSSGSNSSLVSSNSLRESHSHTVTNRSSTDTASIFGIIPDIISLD

In the case of B1, in test [1], the binding result is recorded as “no binding”.
Consider B2, for which the binding result in test [2] is on record as “no binding”.
For B3, the binding result in test [1] and in test [3] was “no binding” throughout.
Consider B4, for which the binding result in test [1] is reported as “no binding”.
